# Source: publication PMC7116876, “Mechanistic Insights into Regulation of the ALC1 Remodeler by the Nucleosome Acidic Patch” (Cell reports, 2020)
# B1: R611A/S612A: YFP-ALC1 with R611A/S612A linker mutation and R860W, expressed in U2OS cells (protein, UniProt Q86WJ1 1-897, looked up, variant R611A S612A R860W)
# Chromodomain-helicase-DNA-bind …: MERAGATSRGGQAPGFLLRLHTEGRAEAARVQEQDLRQWGLTGIHLRSYQLEGVNWLAQRFHCQNGCILGDEMGLGKTCQTIALFIYLAGRLNDEGPFLILCPLSVLSNWKEEMQRFAPGLSCVTYAGDKEERACLQQDLKQESRFHVLLTTYEICLKDASFLKSFPWSVLVVDEAHRLKNQSSLLHKTLSEFSVVFSLLLTGTPIQNSLQELYSLLSFVEPDLFSKEEVGDFIQRYQDIEKESESASELHKLLQPFLLRRVKAEVATELPKKTEVVIYHGMSALQKKYYKAILMKDLDAFENETAKKVKLQNILSQLRKCVDHPYLFDGVEPEPFEVGDHLTEASGKLHLLDKLLAFLYSGGHRVLLFSQMTQMLDILQDYMDYRGYSYERVDGSVRGEERHLAIKNFGQQPIFVFLLSTRAGGVGMNLTAADTVIFVDSDFNPQNDLQAAARAHRIGQNKSVKVIRLIGRDTVEEIVYRKAASKLQLTNMIIEGGHFTLGAQKPAADADLQLSEILKFGLDKLLASEGSTMDEIDLESILGETKDGQWVSDALPAAEGGSRDQEEGKNHMYLFEGKDYSKEPSKEDRKSFEQLVNLQKTLLEKASQEGAALRNKGSVLIPGLVEGSTKRKRVLSPEELEDRQKKRQEAAAKRRRLIEEKKRQKEEAEHKKKMAWWESNNYQSFCLPSEESEPEDLENGEESSAELDYQDPDATSLKYVSGDVTHPQAGAEDALIVHCVDDSGHWGRGGLFTALEKRSAEPRKIYELAGKMKDLSLGGVLLFPVDDKESRNKGQDLLALIVAQHRDRSNVLSGIKMAALEEGLKKIFLAAKKKKASVHLPRIGHATKGFNWYGTERLIWKHLAARGIPTYIYYFPRSKSAVLHSQSSSSSSRQLVP
# modifications: YFP fusion
# notes: YFP-ALC1 with R611A/S612A linker mutation and R860W, expressed in U2OS cells
# Test system: sites of DNA damage in U2OS cells
# Experiment: Recruitment of YFP-ALC1 to DNA breaks upon laser damage
# Assay type: cell-based, Homo sapiens
# Settings: YFP-ALC1 R860W background, 405 nm laser damage
# Protocol: U2OS Flp-In T-REx cells were a kind gift from Durocher lab and maintained in DMEM medium (GIBCO/Thermo Fisher) supplemented with 10% FBS and Pen/Strep with 15.5 μg/ml zeocin (Invitrogen) and 4 μg/ml blasticidin. CRISPR inactivation of ALC1 was carried out in Flp-In T-REx U2OS cells by transiently expressing Cas9 and gRNA targeting Exon3 of ALC1 F-oligo: CACCGCAG GAAGATTAAATGATGAA R-oligo: […] with px459 (addgene) ([Ran et al., 2013]). Single cell clones were grown by limiting dilution and then screened for ALC1 expression by western blot. […]
# Cells were seeded on 8 well Lab-Tek chamber slides (Thermo Fisher Scientific). […] In order to monitor the association kineticsof YFP-tagged ALC1 at sites of laser micro-irradiation, the time evolution of YFP fluorescence in the damaged region of interest was recorded upon excitation with a 488 nm laser. Recruitment of YFP to bleached ROIs was analyzed in FIJI ([Schindelin et al., 2012]) and data were processed in R. In brief, nuclear masks were segmented by local thresholding. […] In order to quantify recruitment, the mean YFP fluorescence intensities at a given time point t (It) were normalized to the mean initial fluorescence intensities I0 of the same region of interest. Normalized intensities were additionally multiplied with BGI0/BGIt to correct for photobleaching, where BGI represents the background fluorescence intensity. […]
molecule,measurement,setting,value
B1,overall extent of ALC1 recruitment to sites of DNA damage,n ≥ 131 traces from 3 independent experiments,notably compromised the overall extent of ALC1 recruitment
same,recruitment kinetics at sites of DNA damage,"single-exponential half times, n ≥ 131 traces",only modestly delayed recruitment kinetics
